Drawing on US20240132589A1 (ONCORESPONSE, published 2024), this text covers EC50 for 1 molecule.

The target in this test is T1, Human LILRB2 on primary human myeloid cells (human, UniProt Q8N423 22-597).
T1 construct: whole, on cells; the cell type is named under assay; also called LILRB2 on monocytes, M0 and M2c macrophages, myeloid dendritic cells, neutrophils
Kind of test: flow cytometry, AF647-conjugated antibody on human M2c macrophages (10 subjects), average. As for the experimental part:
Anti-LILRB2 antibodies were evaluated for their ability to bind myeloid cell subsets expressing LILRB2, including monocytes, M0 macrophages, and M2c macrophages. M2c macrophages are used as a surrogate for tumor-associated macrophages, a suppressive macrophage commonly found in the tumor microenvironment. Frozen monocytes were removed from storage in vapor phase liquid nitrogen and thawed by gentle swirling in a water bath at 37° C., then resuspended in X-VIVO™ 15 media with 10% FBS. PBMC were placed in a 15 mL conical tube and centrifuged at 300×g for 5 minutes, then supernatant was removed. Cells were resuspended in Assay Medium (X-VIVO™ 15+10% FBS) at a cell density of 2.5×10⁵ cells/mL. Cells were plated into 96-well flat bottom plates at 100 μL/well (25K cells/well). M0 and M2c macrophages were generated as described in Example 10 and collected from flasks by incubation for 15 min at RT in Macrophage Detachment Solution DXF, then removed from the flask into X-VIVO™ 15 medium. Following centrifugation, the cells were resuspended in FACS Blocking Buffer D (FACS Buffer+10% FBS+0.5 mg/mL human IgG1) then incubated at 4° C. for 30 minutes. […]
(In general: A flow cytometer gives signals particle by particle.)

T1 sequence (Q8N423 22-597): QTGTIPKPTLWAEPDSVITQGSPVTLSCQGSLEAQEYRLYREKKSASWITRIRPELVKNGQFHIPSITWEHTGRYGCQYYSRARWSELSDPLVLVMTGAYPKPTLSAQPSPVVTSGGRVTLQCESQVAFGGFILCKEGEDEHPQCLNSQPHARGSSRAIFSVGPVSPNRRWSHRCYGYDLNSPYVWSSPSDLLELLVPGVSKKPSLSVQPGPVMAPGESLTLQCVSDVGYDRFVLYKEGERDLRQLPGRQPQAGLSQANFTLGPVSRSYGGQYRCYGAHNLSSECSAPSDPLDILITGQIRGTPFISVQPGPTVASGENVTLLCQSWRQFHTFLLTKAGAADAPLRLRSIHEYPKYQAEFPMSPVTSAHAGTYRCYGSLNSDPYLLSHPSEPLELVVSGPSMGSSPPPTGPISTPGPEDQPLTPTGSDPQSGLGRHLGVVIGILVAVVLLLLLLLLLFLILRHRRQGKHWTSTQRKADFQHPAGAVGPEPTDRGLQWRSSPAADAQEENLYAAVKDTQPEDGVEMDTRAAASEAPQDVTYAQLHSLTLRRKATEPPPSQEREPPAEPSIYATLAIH

B1: B2H1-55 (antibody, V domains shown)
VH: EVQLLESGGGLVQPGTSLTLSCAASGFSLSTYAMSWVRQAPGKGLEWIGWIYNDGSTYYAAWAKGRFTISKDTSKTTLYLQITSLRAEDTATYFCAREGDYIGYFNIWGQGTLVTVSS
VL: DVVMTQTPSSVSAALGGTVTIKCQASQSIGSNLAWYQLKPGQRPKLLIYAAATLASGGSSRFKGSGSGTDFTLTISSLEPADAATYYCQSYVSGSSDVAFGGGTEVVVK
notes: Humanized variant, human IgG1 / kappa; also called humanized variant B2H1-55; humanized LILRB2 antibody B2H1-55
As usually defined, the EC50 is the concentration that produces a half-maximal response. Low values mean higher potency in that assay, high ones lower potency in that assay. For the molecule B1, it took 0.0243 µg/mL to reach a half-maximal effect (EC50).
